According to patent US6790633:

Molecular target: rat brain farnesyl:protein transferase (rat) (UniProt Q04631)
Assay: cell-based or functional assay

Substance | fold decline in affinity for the enzyme | fold decrease in affinity for the enzyme against CVIM, as estimated by the concentration required for 50% inhibition | concentration required for inhibition | other results
CVIM with glutamic acid at the A2 position (peptide) | > 50 fold |  |  | 
CVIM with glycine at the A2 position (peptide) |  |  |  | concentration giving 50% inhibition: 8 µM
CVIM with lysine at the A2 position (peptide) | > 50 fold | > 30 fold |  | 
CVIM with lysine at the X position (peptide) |  | > 30 fold | > 40 µM | 

Now from value to substance, other results behind:

fold decline in affinity for the enzyme | fold decrease in affinity for the enzyme against CVIM, as estimated by the concentration required for 50% inhibition | concentration required for inhibition | Substance | other results
 |  | > 40 µM | CVIM with glycine at the X position (peptide) | 
 |  | > 40 µM | CVIM with glutamic acid at the X position (peptide) | 
